{
  "source": "paper PMC3912440",
  "about": "(Scientific Reports, 2014)",
  "molecules": {"B1": {"name": "HagB: recombinant hemagglutinin B of P. gingivalis, 49.0 kDa protein composed of 350 amino acid residues (protein)", "chain": "MTVENLRLQRLQNLEHYRFAKNVLTLCRTANIAKLNPKLPELEKAIEMEDLALNPPVANELTPQVIALDEERDRAYQALMSRVRSYAFDEDSQLRNAAARIEDVAARYGNVIRMNYDKETAAIENFLTDLKGENIRPLVTKLGVTALVDRLEKNNKAFADFFLRRLSTDQRGKYDVKALRAETDRTLVAVVRRMDSIDDMEPSPEIRALIELYNRLVANRRALLARRASYGEAAVEKRRAEIAEMLRPLLARIVEEKKTAVFAGRTLGTGKNRHYLITFVAENGDEEDRWYRINGEQLVYVPEDELPKPKKKKKPASSTDTPSEPPVLPDPSQGGSSSGGGEQGSTGGGL", "modifications": "left off: His6 (from the vector pQE31), end not stated, state not stated"}},
  "tested_on": "Mononuclear cell-derived human myeloid dendritic cells",
  "type": "cell-based",
  "details": "0.02 μM HagB alone",
  "data": [
    {"molecule": "B1", "values": [
      {"measurement": "CCL3/MIP-1α, CCL4/MIP-1β, and TNFα responses induced", "value": "strong"},
      {"measurement": "CSF2/GM-CSF response induced", "value": "weaker"}
    ]}
  ]
}
